Experimental data: PMC9324987, “Comparative Analysis of Catabolic and Anabolic Dehydroshikimate Dehydratases for 3,4-DHBA Production in Escherichia coli” (Microorganisms, 2022)

Legend:
[1] = molecular target: T1, Qa-4 (Neurospora crassa, UniProt P07046); test: […],4-DHBA formation at […] nm, product inhibition; assay type: biochemical
T1 construct: full length, C-terminal His6 (pET22b), codon-optimised synthetic gene, made in E. coli BL21(DE3); primer-encoded N-terminus MPSKLAISS
T1 sequence (P07046 1-359): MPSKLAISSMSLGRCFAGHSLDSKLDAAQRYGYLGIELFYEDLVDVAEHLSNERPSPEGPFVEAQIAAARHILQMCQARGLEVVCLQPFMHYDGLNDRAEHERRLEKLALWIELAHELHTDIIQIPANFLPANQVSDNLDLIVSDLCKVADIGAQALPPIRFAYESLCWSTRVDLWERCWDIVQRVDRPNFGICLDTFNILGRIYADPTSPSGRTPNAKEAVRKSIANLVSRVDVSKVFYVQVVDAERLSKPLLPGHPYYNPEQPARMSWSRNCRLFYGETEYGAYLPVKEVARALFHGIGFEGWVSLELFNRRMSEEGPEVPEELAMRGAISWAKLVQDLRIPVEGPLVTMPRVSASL

[2] = molecular target: T2, QsuB (Corynebacterium glutamicum, UniProt Q8NT86); test: […],4-DHBA formation at […] nm, product inhibition; assay type: biochemical
T2 construct: gene Cgl0422
T2 sequence (Q8NT86 1-618): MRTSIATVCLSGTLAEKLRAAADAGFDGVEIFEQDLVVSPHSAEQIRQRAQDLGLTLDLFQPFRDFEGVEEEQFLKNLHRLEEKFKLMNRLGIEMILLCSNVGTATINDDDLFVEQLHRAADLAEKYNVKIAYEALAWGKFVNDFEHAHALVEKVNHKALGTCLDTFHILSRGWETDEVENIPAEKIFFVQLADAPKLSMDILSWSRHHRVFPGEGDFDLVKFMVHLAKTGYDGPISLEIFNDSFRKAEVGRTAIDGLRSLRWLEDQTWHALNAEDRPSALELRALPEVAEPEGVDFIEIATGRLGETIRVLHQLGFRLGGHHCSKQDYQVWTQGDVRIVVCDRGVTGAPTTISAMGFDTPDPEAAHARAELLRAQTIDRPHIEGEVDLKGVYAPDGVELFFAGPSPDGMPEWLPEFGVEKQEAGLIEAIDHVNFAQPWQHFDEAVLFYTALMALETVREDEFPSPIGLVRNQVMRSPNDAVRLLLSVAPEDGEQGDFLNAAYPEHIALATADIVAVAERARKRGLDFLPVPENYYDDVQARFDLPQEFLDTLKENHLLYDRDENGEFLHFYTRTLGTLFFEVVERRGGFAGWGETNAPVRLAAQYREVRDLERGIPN

[3] = molecular target: T3, AsbF (Bacillus thuringiensis, UniProt A0A1B1L4G3); test: […],4-DHBA formation at […] nm, product inhibition; assay type: biochemical; conditions: 1 mM DHS, 10 mM Mg2+, 0.1 M Tris/HCl pH 7.5, 20 °C, 150 nM enzyme
T3 construct: gene CAB88_09740

[4] = substrate: O=C(O)C1=CC(=O)[C@@H](O)[C@H](O)C1; test: purified protein; assay type: biochemical, Corynebacterium glutamicum; conditions: 10 mM metal salt (preferred metal, Co2+), 0.1 M Tris/HCl pH 7.5, 20 °C, 0.1-5 mM DHS
[5] = substrate: O=C(O)C1=CC(=O)[C@@H](O)[C@H](O)C1; test: purified protein; assay type: biochemical, Neurospora crassa; conditions: 10 mM Mg2+, 0.1 M Tris/HCl pH 7.5, 20 °C, 0.1-5 mM DHS

T3 sequence (A0A1B1L4G3 1-280): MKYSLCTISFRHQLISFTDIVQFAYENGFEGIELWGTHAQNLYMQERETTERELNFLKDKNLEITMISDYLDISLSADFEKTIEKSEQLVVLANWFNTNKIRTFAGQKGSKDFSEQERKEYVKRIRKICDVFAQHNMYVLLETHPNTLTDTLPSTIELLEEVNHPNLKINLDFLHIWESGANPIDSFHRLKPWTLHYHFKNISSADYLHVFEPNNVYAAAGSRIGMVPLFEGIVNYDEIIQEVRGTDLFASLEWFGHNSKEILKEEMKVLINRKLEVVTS

Molecule: O=C(O)c1ccc(O)c(O)c1 [3,4-DHBA]
- IC50 [1]: ~640 µM
- IC50 [2]: ~350 µM
- IC50 [3]: ~80 µM

B1: QsuB (Corynebacterium glutamicum ATCC 13032) (protein)
chain: T2 sequence (Q8NT86 1-618)
- Km [4]: 961 ± 77 µM
- kcat [4]: 60.8 ± 0.9 s⁻¹
- kcat/Km [4]: 63300 ± 11700 M⁻¹ s⁻¹

B2: Qa-4 (Neurospora crassa OR74A) (protein)
chain: T1 sequence (P07046 1-359)
notes: full length, C-terminal His6 (pET22b), codon-optimised synthetic gene, made in E. coli BL21(DE3); primer-encoded N-terminus MPSKLAISS
- Km [5]: 598 ± 16 µM
- kcat [5]: 218.6 ± 1.1 s⁻¹
- kcat/Km [5]: 366000 ± 68800 M⁻¹ s⁻¹
